Measurements: patent US20260167721A1 (ABLEXIS, published 2026)

Experiments:
[1] = target: T1, recombinant human CD3 epsilon/delta heterodimer (human, UniProt P07766 23-126; P04234 22-105); assay: Octet BLI, mAb on FAB2G sensor, hCD3 E/D 200-50 nM; R^2 0.98;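 note: antibodies purified from hybridoma supernatants, measured by Octet binding to recombinant human CD3 protein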
T1 construct: Recombinant protein in solution (200-50 nM) in the Octet assay; also called hCD3 E/D; human CD3E/D
Protocol: (§1) Samples were evaluated by flow cytometry analysis against Jurkat and human Pan-T cells (FIG. 1B) as well as by Octet against recombinant human CD3 proteins to evaluate apparent affinities and binding off-rates (Table 6, infra).

[2] = target: T2, recombinant human CD3 epsilon/gamma heterodimer (human, UniProt P07766 23-126; P09693 23-116); assay: Octet BLI, mAb on FAB2G sensor, hCD3 E/G 200-50 nM; R^2 0.99
T2 construct: Recombinant protein in solution (200-50 nM) in the Octet assay; also called hCD3 E/G

[3] = target: T1, recombinant human CD3 epsilon/delta …; assay: Octet BLI, mAb on FAB2G sensor, hCD3 E/D 200-50 nM; R^2 1.00
[4] = target: T2, recombinant human CD3 epsilon/gamma …; assay: Octet BLI, mAb on FAB2G sensor, hCD3 E/G 200-50 nM; R^2 1.00
Protocol: as §1

[5] = target: T1, recombinant human CD3 epsilon/delta …; assay: Octet BLI, mAb on FAB2G sensor, hCD3 E/D 200-50 nM; R^2 0.99
[6] = target: T2, recombinant human CD3 epsilon/gamma …; assay: Octet BLI, mAb on FAB2G sensor, hCD3 E/G 200-50 nM; R^2 0.98
Protocol: as §1

CD33 on KILR-HL60 cells [7] = target: T3, CD33 on KILR-HL60 cells (UniProt P20138 18-364, limits assumed); assay: flow cytometry on KILR-HL60 (CD33 expressing) cells, antibody at 1 ug/ml
T3 construct: whole, on cells; Target of the gemtuzumab arm; also called CD33 expressing cells

CD33 on KILR-HL60 cells [8] = target: T3, CD33 on KILR-HL60 cells; assay: flow cytometry on KILR-HL60 (CD33 expressing) cells, antibody at 10 ug/ml

T2 sequence (P07766 23-126, chain 1 of 2): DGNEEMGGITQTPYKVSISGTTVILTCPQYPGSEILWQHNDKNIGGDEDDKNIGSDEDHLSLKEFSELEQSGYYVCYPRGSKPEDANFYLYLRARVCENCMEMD
T2 sequence (P09693 23-116, chain 2 of 2): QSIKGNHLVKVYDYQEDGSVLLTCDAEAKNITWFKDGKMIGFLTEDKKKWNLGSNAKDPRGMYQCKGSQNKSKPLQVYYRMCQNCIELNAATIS
T1 sequence (P07766 23-126, stated change not applied, chain 1 of 2): as the sequence (P07766 23-126, chain 1 of 2) above
T1 sequence (P04234 22-105, stated change not applied, chain 2 of 2): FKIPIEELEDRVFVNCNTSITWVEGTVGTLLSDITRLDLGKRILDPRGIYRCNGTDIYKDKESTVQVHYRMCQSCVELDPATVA
T3 sequence (P20138 18-364 limits assumed): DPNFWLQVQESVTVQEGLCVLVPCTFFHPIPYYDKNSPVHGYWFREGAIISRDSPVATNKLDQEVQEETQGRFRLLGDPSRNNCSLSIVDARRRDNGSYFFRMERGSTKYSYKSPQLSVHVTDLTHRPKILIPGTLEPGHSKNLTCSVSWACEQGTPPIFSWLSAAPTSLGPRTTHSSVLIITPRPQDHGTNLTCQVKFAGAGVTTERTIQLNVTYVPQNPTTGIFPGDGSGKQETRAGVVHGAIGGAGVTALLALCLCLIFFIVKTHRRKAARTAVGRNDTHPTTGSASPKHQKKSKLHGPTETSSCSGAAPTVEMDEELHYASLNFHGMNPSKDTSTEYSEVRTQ

Binder	Kd [1] [nM]	Response [1]	koff [1] [s⁻¹]	kon [1] [M⁻¹ s⁻¹]	Kd [4] [nM]	Response [4]	koff [4] [s⁻¹]	kon [4] [M⁻¹ s⁻¹]	Kd [6] [nM]	Response [6]	koff [6] [s⁻¹]	kon [6] [M⁻¹ s⁻¹]	also measured
ABL-CD3-57 (antibody, V domains shown, Chimeric hybridoma mAb: human V, CH1, upper hinge; mouse middle hinge, CH2, CH3) VH: EVQLVESGGGLVKPGGSLRLSCAASGFTFSSYTMNWVRQAPGKGLEWVSSISTSSRYIYYTDSVKGRFTISRDDAKNSLYLQMNSLRAEDTAVYYCTRNWGYDVFDIWGQGTMVIVSS VL: QPVLTQPSSHSASSGASVRLTCMLSSGFSVGDFWIRWYQQKPGNPPRYLLYYHSDSNKGQGSGVPSRFSGSNDASANAGILRISGLQPEDEADYYCGTWHSNSKTQVFGGGTKLTVL	4.29	0.49	0.000277	64700									Kd [2]: 3.97 nM; Response [2]: 0.54; koff [2]: 0.00026 s⁻¹; kon [2]: 65400 M⁻¹ s⁻¹
ABL-CD3-6 (antibody, V domains shown, Chimeric hybridoma mAb: human V, CH1, upper hinge; mouse middle hinge, CH2, CH3) VH: EVQLVDSGGGLVKPGGSLRLSCAASGFTFSSYSMNWVRQAPGKGLEWVSSISSRGSYRNYADSVKGRFTISRDNAKNSLYLQMNSLRAEDTAVYYCARDRRELLLDCWGQGTLVTVSS VL: SYELTQPPSVSVSPGQTARITCSGDALPKKYAYWYQQKSGQAPVLVIYEDSKRPSGIPERFSGSSSGTMATLTISGAQVEDEADYYCYSTDSSGNHSWVFGGGTKLTVL					138	0.17	0.0779	566000					Kd [3]: 69.7 nM; Response [3]: 0.3; koff [3]: 0.0333 s⁻¹; kon [3]: 477000 M⁻¹ s⁻¹
ABL-CD3-25 (antibody, V domains shown, Chimeric hybridoma mAb: human V, CH1, upper hinge; mouse middle hinge, CH2, CH3) VH: EVHLVESGGGLVKPGGSLRLSCAASGFTFSSYSMNWVRQAPGKGLEWVSSISSSSTYIYYADSVKGRFTISRDNAKNSLYLQMNSLRAEDTAVYYCAREPRTLGMDYWGQGILVTVSS VL: NFMLTQPHSVSESPGKTVTISCTRSSGSIASNYVQWYQQRPGSSPTTVIYEDNHRPSGVPDRFSGSIDSSSNSASLTISGLKTEDEADYFCQSFDSSNRVFGGGTKLTVL					11.7	1.27	0.00113	96600					Kd [5]: 8.56 nM; Response [5]: 1.32; koff [5]: 0.000933 s⁻¹; kon [5]: 109000 M⁻¹ s⁻¹
ABL-CD3-62 (antibody, V domains shown, Chimeric hybridoma mAb: human V, CH1, upper hinge; mouse middle hinge, CH2, CH3) VH: EVQLVESGGGLVKPGGSLRLSCAASGFTFSSYSMNWVRQAPGKGLEWVSSISRSSGYIFYADSVKGRFTISRDNAKNSLYLQMNSLRAEDTAVYYCVRERVGAGFDYWGQGTLVTVSS VL: NFMLTQPHSVSESPGKTVAISCTRSSGSIASNYVQWYQQRPGSSPTAVIYEDNQRPSGVPDRFSGSIDSSSNSAFLTISGLKTEDEADYYCQSYDSSNRVFGGGTKLTVL	34	0.56	0.00765	225000					23.8	0.69	0.00391	164000	
ABL-CD3-51 (antibody, V domains shown, Chimeric hybridoma mAb: human V, CH1, upper hinge; mouse middle hinge, CH2, CH3) VH: EVQLVESGGGLVKPGGSLRLSCAASGFTFSSYSMNWVRQAPGKGLEWVSSISRSSSYIYYADSVKGRFTISRDNAKNSLYLQMNSLRAEDTAVYYCARERWELLYFDYWGQGTLVTVSS VL: NFMLTQPHSVSESPGKTVTISCTRSSGSIASNYVQWYQQRPGSSPTTVIYEDNQRPSGVPDRFSGSIDSSSNSASLTISGLKTEDEADYYCQSYDSSNRVFGGGTKLTVL	77.1	0.21	0.0188	244000					233	0.06	0.163	699000	
ABL-CD3-15 (antibody, V domains shown, Chimeric hybridoma mAb: human V, CH1, upper hinge; mouse middle hinge, CH2, CH3) VH: EVQLVESGGGLVKPGGSLRLSCAASGFNCSSYSMNWVRQAPGKGLEWVSSISRSSNYIYYADSVKGRFSISRDDAKNSLYLQMNSLRAEDTAVYYCARERWIQLYSDYWGQGILVTVSS VL: NFMLTQPHSVSESPGKTVTISCTRSSGSIASNYVQWYQQRPGSSPTTVIYEDNQRPSGVPDRFSGSIDSSSNSASLTISGLKTEDEADYYCQSYDSSNRVFGGGTKLTVL					6.54	0.83	0.00113	173000					Kd [5]: 1.62 nM; Response [5]: 0.93; koff [5]: 0.000276 s⁻¹; kon [5]: 171000 M⁻¹ s⁻¹
ABL-CD3-34 (antibody, V domains shown, Chimeric hybridoma mAb: human V, CH1, upper hinge; mouse middle hinge, CH2, CH3) VH: EVHLVESGGGLVKPGGSLRLSCAASGFTFSRYSMNWVRQAPGKGLEWVSSISRSSSYIYYADSVKGRFTISRDNAKNSLYLQMNSLRAEDTAVYYCAREPRTLGMDYWGQGILVTVSS VL: NFMLTQPHSVSESPGKTVTISCTRSSGSIASNYVQWYQQRPGSSPTTVIYEDNQRPSGVPDRFSGSIDSSSNSASLTISGLKTEDEADYYCQSYDSSNRVFGGGTKLTVL	9.01	0.93	0.00211	234000					9.82	0.89	0.00196	199000	
CD3 × CD33-BspAb65 (bispecific antibody) scFv-Fc: NFMLTQPHSVSESPGKTVTIACTRSSGSIASNYVQWYQQRPGSSPTTVIYEDNQRPSGVPDRFSGSIDSSSNSASLTISGLKTEDEADYYCQSYDSSNQVFGCGTKLTVLGGGGSGGGGSGGGGSGGGGSQVTLKESGPGILQPSQTLSLTCSFSGFSLSTFGMGVGWIRQPSGKCLEWLAHIWWDDDKYYNPALKSRLTISKDTSKNQVFLKIANVDTADTATYYCARLGYYPYWFFDVWGTGTTVTVSSGGGGSDKTHTCPPCPAPEFEGGPSVFLFPPKPKDTLMISRTPEVTCVVVDVSHEDPEVKFNWYVDGVEVHNAKTKPREEQYNSTYRVVSVLTVLHQDWLNGKEYKCKVSNKALPASIEKTISKAKGQPREPQVYTLPPCREEMTKNQVSLWCLVKGFYPSDIAVEWESNGQPENNYKTTPPVLDSDGSFFLYSKLTVDKSRWQQGNVFSCSVMHEALHNHYTQKSLSLSPGK heavy: EVQLVQSGAEVKKPGSSVKVSCKASGYTITDSNIHWVRQAPGQSLEWIGYIYPYNGGTDYNQKFKNRATLTVDNPTNTAYMELSSLRSEDTAFYYCVNGNPWLAYWGQGTLVTVSSASTKGPSVFPLAPSSKSTSGGTAALGCLVKDYFPEPVTVSWNSGALTSGVHTFPAVLQSSGLYSLSSVVTVPSSSLGTQTYICNVNHKPSNTKVDKRVEPKSCDKTHTCPPCPAPEFEGGPSVFLFPPKPKDTLMISRTPEVTCVVVDVSHEDPEVKFNWYVDGVEVHNAKTKPREEQYNSTYRVVSVLTVLHQDWLNGKEYKCKVSNKALPASIEKTISKAKGQPREPQVCTLPPSREEMTKNQVSLSCAVKGFYPSDIAVEWESNGQPENNYKTTPPVLDSDGSFFLVSKLTVDKSRWQQGNVFSCSVMHEALHNRFTQKSLSLSPGK light: DIQLTQSPSTLSASVGDRVTITCRASESLDNYGIRFLTWFQQKPGKAPKLLMYAASNQGSGVPSRFSGSGSGTEFTLTISSLQPDDFATYYCQQTKEVPWSFGQGTKVEVKRTVAAPSVFIFPPSDEQLKSGTASVVCLLNNFYPREAKVQWKVDNALQSGNSQESVTEQDSKDSTYSLSSTLTLSKADYEKHKVYACEVTHQGLSSPVTKSFNRGEC													flow cytometry signal (CD33 on KILR-HL60 cells [7]): 533000; flow cytometry signal (CD33 on KILR-HL60 cells [8]): 605000
ABL-CD3-52 (antibody, V domains shown, Chimeric hybridoma mAb: human V, CH1, upper hinge; mouse middle hinge, CH2, CH3) VH: EVQLVESGGGLVKPGGSLRLSCAASGFTFSYYSMNWVRQAPGKGLEWVSSISRSTTYIYYADSVKGRFTISRDNAKNSLYLQMNSLRAEDTAVYYCARDGKGAIFLDYWGQGTLVTVSS VL: SYELTQPPSVSVSPGQTARITCSGDALPKKYAYWYQQKSGQAPVLVIYEDSKRPSGIPERFSGSSSGTMATLTISGAQVEDEADYYCYSTDSSGNHRVFGGGTKLTVL	54	0.35	0.0202	373000					233	0.14	0.115	495000	
